T1: APBA2_2, Q99767
T1 sequence (Q99767 654-744, limits assumed, looked up): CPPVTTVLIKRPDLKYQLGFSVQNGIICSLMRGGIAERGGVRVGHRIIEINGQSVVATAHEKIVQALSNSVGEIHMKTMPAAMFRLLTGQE

T2: ARHGAP21, Q5T5U3
T2 sequence (Q5T5U3 45-169, limits assumed, looked up): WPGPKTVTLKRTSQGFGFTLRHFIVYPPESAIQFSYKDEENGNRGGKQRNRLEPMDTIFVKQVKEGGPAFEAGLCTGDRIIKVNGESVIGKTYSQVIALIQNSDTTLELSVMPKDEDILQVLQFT

T3: CARD11, Q9BXL7
T3 sequence (Q9BXL7 662-765, limits assumed, looked up): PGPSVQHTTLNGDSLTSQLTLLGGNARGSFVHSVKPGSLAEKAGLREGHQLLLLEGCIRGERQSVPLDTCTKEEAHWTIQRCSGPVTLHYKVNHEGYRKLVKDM

T4: DFNB31_1, Q9P202
T4 sequence (Q9P202 135-233, limits assumed, looked up): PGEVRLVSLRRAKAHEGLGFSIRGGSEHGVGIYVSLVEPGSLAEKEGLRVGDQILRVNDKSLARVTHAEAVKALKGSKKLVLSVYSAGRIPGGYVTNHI

T5: DFNB31_3, Q9P202
T5 sequence (Q9P202 811-907, limits assumed, looked up): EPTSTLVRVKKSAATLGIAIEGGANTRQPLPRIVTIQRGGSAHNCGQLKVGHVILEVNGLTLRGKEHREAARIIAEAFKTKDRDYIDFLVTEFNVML

T6: FRMPD1, Q5SYB0
T6 sequence (Q5SYB0 52-145, limits assumed, looked up): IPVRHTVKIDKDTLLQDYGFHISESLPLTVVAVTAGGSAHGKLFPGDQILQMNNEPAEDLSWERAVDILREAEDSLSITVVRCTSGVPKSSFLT

T7: HTRA3, P83110
T7 sequence (P83110 354-453, limits assumed, looked up): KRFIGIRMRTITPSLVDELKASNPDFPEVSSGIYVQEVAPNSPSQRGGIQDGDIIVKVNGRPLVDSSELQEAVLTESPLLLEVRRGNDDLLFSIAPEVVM

T8: PARD3B_1, Q8TEW8
T8 sequence (Q8TEW8 196-299, limits assumed, looked up): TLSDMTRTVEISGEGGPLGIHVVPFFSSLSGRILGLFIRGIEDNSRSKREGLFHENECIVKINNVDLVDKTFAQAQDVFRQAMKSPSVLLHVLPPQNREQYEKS

T9: PDZD7_3, Q9H5P4
T9 sequence (Q9H5P4 857-944, limits assumed, looked up): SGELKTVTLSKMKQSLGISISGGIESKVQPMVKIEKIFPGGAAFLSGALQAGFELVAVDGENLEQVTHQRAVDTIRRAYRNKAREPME

T10: SIPA1L2, Q9P2F8
T10 sequence (Q9P2F8 945-1036, limits assumed, looked up): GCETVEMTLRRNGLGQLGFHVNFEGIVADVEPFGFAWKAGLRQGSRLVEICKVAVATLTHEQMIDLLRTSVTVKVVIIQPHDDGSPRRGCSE

T11: SNTA1, Q13424
T11 sequence (Q13424 82-180, limits assumed, looked up): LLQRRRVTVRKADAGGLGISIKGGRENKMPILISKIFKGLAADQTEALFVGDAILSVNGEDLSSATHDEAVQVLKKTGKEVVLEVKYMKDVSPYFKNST

T12: SNTG1, Q9NSN8
T12 sequence (Q9NSN8 52-150, limits assumed, looked up): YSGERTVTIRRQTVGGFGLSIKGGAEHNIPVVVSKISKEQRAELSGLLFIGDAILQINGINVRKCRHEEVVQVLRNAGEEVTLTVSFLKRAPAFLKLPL

T13: TJP3_3, O95049
T13 sequence (O95049 375-456, limits assumed, looked up): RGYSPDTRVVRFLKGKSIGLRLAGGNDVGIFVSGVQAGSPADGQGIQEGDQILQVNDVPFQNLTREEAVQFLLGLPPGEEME


biological target: T1, APBA2_2, Q99767; experiment: holdup assay; design: key: below the threshold = too weak to quantify, mostly under pKd 3.1 to 4; conditions: plain residues with an end cap or a label only (N-terminal biotin on a linker: ado-ado)

Binder	pKd
QKASRNESTF [POLR1D, P0DPB6]	below the threshold
MQILSKPEFI [NPSR1, Q6W5P4]	below the threshold

biological target: T2, ARHGAP21, Q5T5U3; experiment: holdup assay; design: key: below the threshold = too weak to quantify, mostly under pKd 3.1 to 4; conditions: plain residues with an end cap or a label only (N-terminal biotin on a linker: ado-ado)

Binder	pKd
QKASRNESTF [POLR1D, P0DPB6]	below the threshold
MQILSKPEFI [NPSR1, Q6W5P4]	below the threshold

biological target: T3, CARD11, Q9BXL7; experiment: holdup assay; design: key: below the threshold = too weak to quantify, mostly under pKd 3.1 to 4; conditions: plain residues with an end cap or a label only (N-terminal biotin on a linker: ado-ado)

Binder	pKd
QKASRNESTF [POLR1D, P0DPB6]	below the threshold
MQILSKPEFI [NPSR1, Q6W5P4]	below the threshold

biological target: T4, DFNB31_1, Q9P202; experiment: holdup assay; design: key: below the threshold = too weak to quantify, mostly under pKd 3.1 to 4; conditions: plain residues with an end cap or a label only (N-terminal biotin on a linker: ado-ado)

Binder	pKd
QKASRNESTF [POLR1D, P0DPB6]	below the threshold
MQILSKPEFI [NPSR1, Q6W5P4]	below the threshold

biological target: T5, DFNB31_3, Q9P202; experiment: holdup assay; design: key: below the threshold = too weak to quantify, mostly under pKd 3.1 to 4; conditions: plain residues with an end cap or a label only (N-terminal biotin on a linker: ado-ado)

Binder	pKd
QKASRNESTF [POLR1D, P0DPB6]	below the threshold
MQILSKPEFI [NPSR1, Q6W5P4]	below the threshold

biological target: T6, FRMPD1, Q5SYB0; experiment: holdup assay; design: key: below the threshold = too weak to quantify, mostly under pKd 3.1 to 4; conditions: plain residues with an end cap or a label only (N-terminal biotin on a linker: ado-ado)

Binder	pKd
QKASRNESTF [POLR1D, P0DPB6]	below the threshold
MQILSKPEFI [NPSR1, Q6W5P4]	below the threshold

biological target: GORASP1, Q9BQQ3; experiment: holdup assay; design: key: below the threshold = too weak to quantify, mostly under pKd 3.1 to 4; conditions: plain residues with an end cap or a label only (N-terminal biotin on a linker: ado-ado)
Sequence (Q9BQQ3 1-208): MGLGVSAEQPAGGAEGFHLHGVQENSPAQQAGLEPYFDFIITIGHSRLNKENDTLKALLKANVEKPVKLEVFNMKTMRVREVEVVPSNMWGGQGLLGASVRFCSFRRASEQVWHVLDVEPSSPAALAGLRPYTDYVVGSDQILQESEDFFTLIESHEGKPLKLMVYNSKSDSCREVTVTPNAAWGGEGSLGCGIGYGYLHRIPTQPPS

Binder	pKd
QKASRNESTF [POLR1D, P0DPB6]	below the threshold
MQILSKPEFI [NPSR1, Q6W5P4]	4.15

biological target: GRIP2_3, Q9C0E4; experiment: holdup assay; design: key: below the threshold = too weak to quantify, mostly under pKd 3.1 to 4; conditions: plain residues with an end cap or a label only (N-terminal biotin on a linker: ado-ado)
Sequence (Q9C0E4 238-339): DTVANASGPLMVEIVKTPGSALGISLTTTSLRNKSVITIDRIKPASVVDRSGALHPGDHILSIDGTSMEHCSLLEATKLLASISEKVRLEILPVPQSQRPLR

Binder	pKd
QKASRNESTF [POLR1D, P0DPB6]	below the threshold
MQILSKPEFI [NPSR1, Q6W5P4]	below the threshold

biological target: GRIP2_7, Q9C0E4; experiment: holdup assay; design: key: below the threshold = too weak to quantify, mostly under pKd 3.1 to 4; conditions: plain residues with an end cap or a label only (N-terminal biotin on a linker: ado-ado)
Sequence (Q9C0E4 934-1023): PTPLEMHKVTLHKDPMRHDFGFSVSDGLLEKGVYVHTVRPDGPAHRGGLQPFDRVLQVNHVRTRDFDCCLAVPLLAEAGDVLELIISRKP

Binder	pKd
QKASRNESTF [POLR1D, P0DPB6]	below the threshold
MQILSKPEFI [NPSR1, Q6W5P4]	3.69

biological target: T7, HTRA3, P83110; experiment: holdup assay; design: key: below the threshold = too weak to quantify, mostly under pKd 3.1 to 4; conditions: plain residues with an end cap or a label only (N-terminal biotin on a linker: ado-ado)

Binder	pKd
QKASRNESTF [POLR1D, P0DPB6]	below the threshold
MQILSKPEFI [NPSR1, Q6W5P4]	4.61

biological target: LIMK2, P53671; experiment: holdup assay; design: key: below the threshold = too weak to quantify, mostly under pKd 3.1 to 4; conditions: plain residues with an end cap or a label only (N-terminal biotin on a linker: ado-ado)
Sequence (P53671 143-248): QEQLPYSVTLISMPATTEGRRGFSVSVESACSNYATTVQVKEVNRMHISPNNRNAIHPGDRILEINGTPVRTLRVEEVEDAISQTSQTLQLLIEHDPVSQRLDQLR

Binder	pKd
QKASRNESTF [POLR1D, P0DPB6]	below the threshold
MQILSKPEFI [NPSR1, Q6W5P4]	below the threshold

biological target: MAGI1_2, Q96QZ7; experiment: holdup assay; design: key: below the threshold = too weak to quantify, mostly under pKd 3.1 to 4; conditions: plain residues with an end cap or a label only (N-terminal biotin on a linker: ado-ado)
Sequence (Q96QZ7 456-580): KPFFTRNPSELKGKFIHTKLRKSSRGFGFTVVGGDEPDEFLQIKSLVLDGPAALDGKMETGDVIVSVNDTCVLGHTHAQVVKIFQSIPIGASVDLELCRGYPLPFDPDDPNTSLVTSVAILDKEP

Binder	pKd
QKASRNESTF [POLR1D, P0DPB6]	below the threshold
MQILSKPEFI [NPSR1, Q6W5P4]	below the threshold

biological target: NHERF4_2, Q86UT5; experiment: holdup assay; design: key: below the threshold = too weak to quantify, mostly under pKd 3.1 to 4; conditions: plain residues with an end cap or a label only (N-terminal biotin on a linker: ado-ado)
Sequence (Q86UT5 220-308): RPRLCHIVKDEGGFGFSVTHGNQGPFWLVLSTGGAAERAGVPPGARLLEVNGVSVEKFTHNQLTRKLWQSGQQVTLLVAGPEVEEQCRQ

Binder	pKd
QKASRNESTF [POLR1D, P0DPB6]	below the threshold
MQILSKPEFI [NPSR1, Q6W5P4]	below the threshold

biological target: T8, PARD3B_1, Q8TEW8; experiment: holdup assay; design: key: below the threshold = too weak to quantify, mostly under pKd 3.1 to 4; conditions: plain residues with an end cap or a label only (N-terminal biotin on a linker: ado-ado)

Binder	pKd
QKASRNESTF [POLR1D, P0DPB6]	4.05
MQILSKPEFI [NPSR1, Q6W5P4]	4.09

biological target: PARD3_3, Q8TEW0; experiment: holdup assay; design: key: below the threshold = too weak to quantify, mostly under pKd 3.1 to 4; conditions: plain residues with an end cap or a label only (N-terminal biotin on a linker: ado-ado)
Sequence (Q8TEW0 582-685): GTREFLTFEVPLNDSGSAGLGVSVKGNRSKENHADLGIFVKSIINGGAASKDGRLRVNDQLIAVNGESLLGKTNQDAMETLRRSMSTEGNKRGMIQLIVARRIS

Binder	pKd
QKASRNESTF [POLR1D, P0DPB6]	below the threshold
MQILSKPEFI [NPSR1, Q6W5P4]	3.98

biological target: T9, PDZD7_3, Q9H5P4; experiment: holdup assay; design: key: below the threshold = too weak to quantify, mostly under pKd 3.1 to 4; conditions: plain residues with an end cap or a label only (N-terminal biotin on a linker: ado-ado)

Binder	pKd
QKASRNESTF [POLR1D, P0DPB6]	3.71
MQILSKPEFI [NPSR1, Q6W5P4]	below the threshold

biological target: SCRIB_1, Q14160; experiment: holdup assay; design: key: below the threshold = too weak to quantify, mostly under pKd 3.1 to 4; conditions: plain residues with an end cap or a label only (N-terminal biotin on a linker: ado-ado)
Sequence (Q14160 718-814): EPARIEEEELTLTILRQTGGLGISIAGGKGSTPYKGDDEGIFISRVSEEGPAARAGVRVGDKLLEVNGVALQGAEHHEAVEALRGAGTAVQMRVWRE

Binder	pKd
QKASRNESTF [POLR1D, P0DPB6]	3.55
MQILSKPEFI [NPSR1, Q6W5P4]	below the threshold

biological target: SCRIB_3, Q14160; experiment: holdup assay; design: key: below the threshold = too weak to quantify, mostly under pKd 3.1 to 4; conditions: plain residues with an end cap or a label only (N-terminal biotin on a linker: ado-ado)
Sequence (Q14160 999-1103): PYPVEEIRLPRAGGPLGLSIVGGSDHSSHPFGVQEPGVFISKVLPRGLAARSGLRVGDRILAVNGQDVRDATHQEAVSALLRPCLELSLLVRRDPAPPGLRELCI

Binder	pKd
QKASRNESTF [POLR1D, P0DPB6]	4.12
MQILSKPEFI [NPSR1, Q6W5P4]	3.59

biological target: T10, SIPA1L2, Q9P2F8; experiment: holdup assay; design: key: below the threshold = too weak to quantify, mostly under pKd 3.1 to 4; conditions: plain residues with an end cap or a label only (N-terminal biotin on a linker: ado-ado)

Binder	pKd
QKASRNESTF [POLR1D, P0DPB6]	below the threshold
MQILSKPEFI [NPSR1, Q6W5P4]	below the threshold

biological target: T11, SNTA1, Q13424; experiment: holdup assay; design: key: below the threshold = too weak to quantify, mostly under pKd 3.1 to 4; conditions: plain residues with an end cap or a label only (N-terminal biotin on a linker: ado-ado)

Binder	pKd
QKASRNESTF [POLR1D, P0DPB6]	below the threshold
MQILSKPEFI [NPSR1, Q6W5P4]	below the threshold

biological target: T12, SNTG1, Q9NSN8; experiment: holdup assay; design: key: below the threshold = too weak to quantify, mostly under pKd 3.1 to 4; conditions: plain residues with an end cap or a label only (N-terminal biotin on a linker: ado-ado)

Binder	pKd
QKASRNESTF [POLR1D, P0DPB6]	below the threshold
MQILSKPEFI [NPSR1, Q6W5P4]	below the threshold

biological target: TJP1_2, Q07157; experiment: holdup assay; design: key: below the threshold = too weak to quantify, mostly under pKd 3.1 to 4; conditions: plain residues with an end cap or a label only (N-terminal biotin on a linker: ado-ado)
Sequence (Q07157 181-274): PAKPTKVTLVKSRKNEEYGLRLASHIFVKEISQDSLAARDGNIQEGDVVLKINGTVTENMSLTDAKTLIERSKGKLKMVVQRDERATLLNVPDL

Binder	pKd
QKASRNESTF [POLR1D, P0DPB6]	below the threshold
MQILSKPEFI [NPSR1, Q6W5P4]	below the threshold

biological target: TJP2_1, Q9UDY2; experiment: holdup assay; design: key: below the threshold = too weak to quantify, mostly under pKd 3.1 to 4; conditions: plain residues with an end cap or a label only (N-terminal biotin on a linker: ado-ado)
Sequence (Q9UDY2 24-128): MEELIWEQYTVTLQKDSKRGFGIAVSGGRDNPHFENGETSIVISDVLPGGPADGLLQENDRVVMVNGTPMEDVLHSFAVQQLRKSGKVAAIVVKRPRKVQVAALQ

Binder	pKd
QKASRNESTF [POLR1D, P0DPB6]	below the threshold
MQILSKPEFI [NPSR1, Q6W5P4]	below the threshold

biological target: T13, TJP3_3, O95049; experiment: holdup assay; design: key: below the threshold = too weak to quantify, mostly under pKd 3.1 to 4; conditions: plain residues with an end cap or a label only (N-terminal biotin on a linker: ado-ado)

Binder	pKd
QKASRNESTF [POLR1D, P0DPB6]	below the threshold
MQILSKPEFI [NPSR1, Q6W5P4]	below the threshold
